Measurements published in patent US20210315992A1, “ADJUVANT EFFECT OF THE TLR1/2 AGONIST DIPROVOCIM SYNERGIZES WITH CHECKPOINT-INHIBITING ANTIBODIES TO ELIMINATE DISEASE” (The Board of Regents of the University of Texas System, priority 2018, published 2021).

Key:
OT-I CD8 T cells = assay: Cross-priming of CD8 T cells (CD69 on OT-I CD8 T cells co-cultured with DCs of immunized mice); format: in vivo, mouse; settings: DCs 24 hours after i.m. immunization, 24 hours co-culture
Method: C57BL/6J male mice were injected i.m. with 100 μg OVA mixed with vehicle or with 10 mg/kg Diprovocim (n=4 mice per treatment). 24 hours later, DCs from draining lymph nodes and spleen were purified by Mouse Pan Dendritic Cell Isolation Kit (Miltenyi Biotech). CD8 T cells from OT-I transgenic mice were purified by Mouse CD8+ T Cell Isolation Kit (Miltenyi Biotech). 3×10^5 DCs were co-cultured with 3×10^5 OT-I CD8 T cells in RPMI medium containing 10% vol/vol FBS and 1% vol/vol penicillin and streptomycin for 24 hours. Then, cells were collected and stained with anti-mouse CD3-FITC, anti-mouse CD8-BV510, and anti-mouse CD69-PE-CF594 (BioLegend) for 45 minutes. Then, the cells were washed twice with PBS. Stained cells were analyzed with an LSRII instrument and the flow cytometry data were analyzed using FlowJo software.

[1] = test system: OVA peptide-pulsed target cells; assay: In vivo CTL killing assay; design: species or system mouse; settings: i.m. immunization, 100 μg OVA, Diprovocim 10 mg/kg; target cells i.v. day 7, read two days later
B16-OVA melanoma [2] = assay: B16-OVA melanoma, pre-tumor treatment (immunization on day of tumor inoculation); format: in vivo, mouse
Method: FIG. 4A through FIG. 4J illustrate inhibition of B16-OVA tumor growth by pre- or post-tumor treatment with Diprovocim-adjuvanted tumor vaccination and checkpoint blockade. FIG. 4A provides a schematic of pre- and post-tumor treatment protocols. C57BL/6J mice (n=8 mice per treatment) were injected s.c. with 2×10^5 B16-OVA melanoma cells on day 0. For pre-tumor treatment, mice were immunized i.m. with OVA (100 μg) mixed with vehicle or Diprovocim (10 mg/kg) or alum (2 mg/kg) on the same day prior to tumor injection. Mice received a booster immunization seven days later in which anti-PD-L1 (200 μg) was administered on days 3, 6 and 9 after tumor inoculation by i.p. injection. For post-tumor treatment, initial immunization was on day 3 after tumor inoculation, with a booster seven days later. Anti-PD-L1 (200 μg) was administered on days 3, 6, 9, 12, and 15 after tumor inoculation by i.p. injection. FIG. 4B through FIG. 4F illustrate pre-tumor treatment results. Tumor volume (FIG. 4B and FIG. 4D) and percent mouse survival (survivors/total mice) (FIG. 4C and FIG. 4E). […] FIG. 4G through FIG. 4J illustrate a comparison of pre-tumor (FIG. 4G and FIG. 4H) vs. post-tumor treatment (FIG. 4I and FIG. 4J). Tumor volume (FIG. 4G and FIG. 4I) and percent mouse survival (survivors/total mice) (FIG. 4H and FIG. 4J) are shown. P values for tumor volume analysis apply to the final time point as indicated in graphs and were calculated by Student's t test. P values for survival analysis were calculated by Kaplan-Meier analysis. All results are representative of two independent studies.
C57BL/6J mice (n=8) were injected s.c. with 2×10^5 B16-OVA melanoma cells on day 0. Anti-PD-L1 (200 μg) or mouse IgG2a isotype control antibody was administered on days 3, 6 and 9 after tumor inoculation by i.p. injection. FIG. 8A is a graph of tumor volume versus time and FIG. 8B is a graph showing percent mouse survival (survivors/total mice) versus time. The control values in both plots are shown above those for the anti-PD-L1 values where the two values diverge. […] Results are representative of two independent studies.
B16-OVA cells (B16F10 melanoma cells stably expressing chicken ovalbumin) were grown in DMEM containing 10% vol/vol FBS. A total of 2×10^5 B16-OVA cells in 100 μL PBS were injected s.c. into the right flank of 8-12 week old male C57BL/6J mice to establish tumors (n=8 mice per group). For pretreatment, 10 mg/kg Diprovocim-1 or 2 mg/kg alum with or without OVA (100 μg) was injected i.m. into mice on the same day as tumor inoculation (day 0). Mice received a booster shot seven days after the first immunization. On day 3, 6 and 9, some groups were injected i.p. with 200 μg checkpoint inhibitor (anti-mPD-L1, BioXcell) in 100 μl saline.
Tumors were measured with a digital caliper (Fisher) and the tumor sizes were calculated using the following formula: volume=0.5×length×width^2. Mice were sacrificed when the tumor length or width reached 2 cm.

B16-OVA melanoma [3] = assay: B16-OVA melanoma, post-tumor treatment (immunization day 3 after tumor inoculation); format: in vivo, mouse; settings: immunization three days after tumor inoculation, plus anti-PD-L1
Method: C57BL/6J mice (n=8 mice per treatment) were injected s.c. with 2×10^5 B16-OVA melanoma cells on day 0. For pre-tumor treatment, mice were immunized i.m. with OVA (100 μg) mixed with vehicle or Diprovocim (10 mg/kg) or alum (2 mg/kg) on the same day prior to tumor injection. Mice received a booster immunization seven days later in which anti-PD-L1 (200 μg) was administered on days 3, 6 and 9 after tumor inoculation by i.p. injection. For post-tumor treatment, initial immunization was on day 3 after tumor inoculation, with a booster seven days later. Anti-PD-L1 (200 μg) was administered on days 3, 6, 9, 12, and 15 after tumor inoculation by i.p. injection. […] P values for tumor volume analysis apply to the final time point as indicated in graphs and were calculated by Student's t test. P values for survival analysis were calculated by Kaplan-Meier analysis. All results are representative of two independent studies.
For post-treatment, 10 mg/kg Diprovocim-1 or 2 mg/kg Alum with OVA (100 μg) was injected i.m. into mice on day 3 after tumor inoculation. Mice received a booster shot seven days after the first immunization. On day 3, 6, 9, 12 and 15 after tumor inoculation, mice were also injected i.p. with 200 μg anti-mPD-L1 in 100 μl saline.
Tumors were measured with a digital caliper (Fisher) and the tumor sizes were calculated using the following formula: volume=0.5×length×width^2. […]

[4] = immunization on day of tumor inoculation, plus anti-PD-L1

B1: OVA: EndoFit ovalbumin, Invivogen; immunogen, given mixed with vehicle when without adjuvant (protein, UniProt P01012 2-386, looked up)
Ovalbumin: GSIGAASMEFCFDVFKELKVHHANENIFYCPIAIMSALAMVYLGAKDSTRTQINKVVRFDKLPGFGDSIEAQCGTSVNVHSSLRDILNQITKPNDVYSFSLASRLYAEERYPILPEYLQCVKELYRGGLEPINFQTAADQARELINSWVESQTNGIIRNVLQPSSVDSQTAMVLVNAIVFKGLWEKAFKDEDTQAMPFRVTEQESKPVQMMYQIGLFRVASMASEKMKILELPFASGTMSMLVLLPDEVSGLEQLESIINFEKLTEWTSSNVMEERKIKVYLPRMKMEEKYNLTSVLMAMGITDVFSSSANLSGISSAESLKISQAVHAAHAEINEAGREVVGSAEAGVDAASVSEEFRADHPFLFCIKHIATNAVLFFGRCVSP
activation (CD69 upregulation) of OT-I CD8 T cells by DCs of immunized mice (OT-I CD8 T cells): failed to induce CD69 expression
target cells eliminated [1]: about 10%
average survival time (B16-OVA melanoma [2]; [4]): 24 days
mice died by 38 days after tumor inoculation (B16-OVA melanoma [2]; [4]): 100%
tumor growth rates and survival times compared with vehicle alone (B16-OVA melanoma [2]; single agent, no anti-PD-L1, i.m. day 0 and booster day 7): similar
average survival time (B16-OVA melanoma [3]): 22 days
